Measurements reported in patent publication US12661385B2, “Modulation of mTORCI activity and autophagy via CIB2-RHEB interaction” (University of Maryland, Baltimore, priority 2018, dated 2026).

Key:
GDP-bound Rheb = target: T1, GDP-bound Rheb (Homo sapiens, UniProt Q15382); test: Co-IP with bead-immobilized HA-GST-Rheb loaded with GDP or GTPγS; type: binding; details: glutathione bead-immobilized HA-GST-Rheb (WT) loaded with GDP or non-cleavable GTPγS, tdTomato-CIB2 lysate added
T1 construct: host or cells: HEK293
T1 sequence (Q15382 whole entry): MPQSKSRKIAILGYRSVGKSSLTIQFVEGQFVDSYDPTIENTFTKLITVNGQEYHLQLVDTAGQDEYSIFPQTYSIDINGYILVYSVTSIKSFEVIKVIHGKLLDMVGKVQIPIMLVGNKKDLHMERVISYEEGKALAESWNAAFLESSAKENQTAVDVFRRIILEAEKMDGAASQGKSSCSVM
Method: (§1) FIG. 3. […] Note the stronger interaction between CIB2 and Rheb S20N variant as compared to Q64L variant (GDP vs GTP mimetic, respectively). c, CIB2 preferentially interacts with GDP-loaded Rheb is further confirmed by co-IP experiments of HA-GST-Rheb immobilized on […] and loaded with either GDP or GTPγS, followed by incubation with tdTomato-CIB2 lysate. d, Proposed model of CIB2 function in retinal sensory cells. […] Loss of CIB2 results in reduced autophagy and exacerbated mTORC1 signaling, thus leading to RPE pathology and secondary PR dysfunction. e, f Immunoblots from RPE/choroid lysates from dry AMD or control age-matched donors indicate reduced CIB2 expression, overactive mTORC1 and reduced autophagy, quantified in panel f. Unpaired two-tailed 1 test was used to determine statistical significance. p value of <0.05 (*), <0.01 (**), and <0.001 (***). Please note that one control sample (ψ) is outliner and is highly variant from the rest, Re-quantification, omitting the highly variant control sample, is shown in FIG. 15. g.
We tested the essentiality of nucleotide binding state of Rheb using co-IP assays. […] Next, we used the Q64L and S20L Rheb variants, which mimic the GTP- and GDP-bound state, respectively.
For GTPγS of GDP loading experiments, cleared lysates of HEK293 cells over-expressing HA-GST-Rheb were prepared as described in buffer lacking MgCl2. […]

Rheb = Rheb (Homo sapiens, UniProt Q15382); test: NanoSPD (nanoTRAP) interaction assay in COS-7 cells, Rheb; type: binding; parameters: host or cells: COS-7; details: filopodia tip co-accumulation
Rheb, sequence (Q15382 whole entry): as above
Text: (§2) FIG. 14. […] Arrowheads indicate filopodia tip accumulation of hCIB2-eGFP, * indicates no accumulation of indicted constructs in the red channel. c. Representative confocal images (top panel) showing CIB2 (green) interaction with Rheb (red) and Raptor (red) using NanoTRAP assay. […] Arrowheads indicate filopodia tip accumulation of indicated constructs, * indicates no accumulation of indicted construct in the red or far-red channel. Scale bar: 10 μm. d. Quantification for nanoTRAP assay for images shown above. *** p<0.001 by one-way ANOVA. e, Co-IP experiments show interaction between Raptor and CIB2.
(§3) To reveal the molecular mechanism of CIB2-mediated mTORC1 modulation, we focused on the TSC-Rheb-mTORC1 axis. We performed an interaction screen of specific proteins including TSC1, TSC2, mTORC1-specific subunit Raptor, mTOR kinase, and Rheb. We used a recently-published quantitative interaction assay known as nanoscale pulldown 2.0 (NanoSPD), in which eGFP-nanobody tag fused to the myosin-HMM domain (nanoTRAP) preferentially migrates to the filopodia (Bird et al., Molecular Biology of the Cell 28, 463-475 (2017)). CIB2-eGFP (bait) migrated efficiently to filopodia in COS-7 cells only in the presence of the nanoTRAP. […] Many downstream and upstream targets of mTORC1 regulate its activity via binding to the mTORC1-specific subunit Raptor. […]

mTORC2 = test: Phosphoprotein immunoblots of HEK293 cells overexpressing increasing amounts of CIB2, mTORC2 target; type: cell-based
Method: as §1
mTORC1 integrates various metabolic and amino acid signals through its nutrient-sensing arm and growth signals, which converge on the small GTPase Rheb, via the TSC complex (Wolfson et al., Cell Metabolism 26, 301-309 (2017)). We first tested if CIB2 is a specific negative regulator of mTORC1 and/or mTORC2. […]

Raptor = Raptor (Homo sapiens, UniProt Q8N122); test: Co-immunoprecipitation of Raptor and CIB2; type: binding; parameters: HA (N); mCherry (N); host or cells: HEK293
Raptor, sequence (Q8N122 whole entry): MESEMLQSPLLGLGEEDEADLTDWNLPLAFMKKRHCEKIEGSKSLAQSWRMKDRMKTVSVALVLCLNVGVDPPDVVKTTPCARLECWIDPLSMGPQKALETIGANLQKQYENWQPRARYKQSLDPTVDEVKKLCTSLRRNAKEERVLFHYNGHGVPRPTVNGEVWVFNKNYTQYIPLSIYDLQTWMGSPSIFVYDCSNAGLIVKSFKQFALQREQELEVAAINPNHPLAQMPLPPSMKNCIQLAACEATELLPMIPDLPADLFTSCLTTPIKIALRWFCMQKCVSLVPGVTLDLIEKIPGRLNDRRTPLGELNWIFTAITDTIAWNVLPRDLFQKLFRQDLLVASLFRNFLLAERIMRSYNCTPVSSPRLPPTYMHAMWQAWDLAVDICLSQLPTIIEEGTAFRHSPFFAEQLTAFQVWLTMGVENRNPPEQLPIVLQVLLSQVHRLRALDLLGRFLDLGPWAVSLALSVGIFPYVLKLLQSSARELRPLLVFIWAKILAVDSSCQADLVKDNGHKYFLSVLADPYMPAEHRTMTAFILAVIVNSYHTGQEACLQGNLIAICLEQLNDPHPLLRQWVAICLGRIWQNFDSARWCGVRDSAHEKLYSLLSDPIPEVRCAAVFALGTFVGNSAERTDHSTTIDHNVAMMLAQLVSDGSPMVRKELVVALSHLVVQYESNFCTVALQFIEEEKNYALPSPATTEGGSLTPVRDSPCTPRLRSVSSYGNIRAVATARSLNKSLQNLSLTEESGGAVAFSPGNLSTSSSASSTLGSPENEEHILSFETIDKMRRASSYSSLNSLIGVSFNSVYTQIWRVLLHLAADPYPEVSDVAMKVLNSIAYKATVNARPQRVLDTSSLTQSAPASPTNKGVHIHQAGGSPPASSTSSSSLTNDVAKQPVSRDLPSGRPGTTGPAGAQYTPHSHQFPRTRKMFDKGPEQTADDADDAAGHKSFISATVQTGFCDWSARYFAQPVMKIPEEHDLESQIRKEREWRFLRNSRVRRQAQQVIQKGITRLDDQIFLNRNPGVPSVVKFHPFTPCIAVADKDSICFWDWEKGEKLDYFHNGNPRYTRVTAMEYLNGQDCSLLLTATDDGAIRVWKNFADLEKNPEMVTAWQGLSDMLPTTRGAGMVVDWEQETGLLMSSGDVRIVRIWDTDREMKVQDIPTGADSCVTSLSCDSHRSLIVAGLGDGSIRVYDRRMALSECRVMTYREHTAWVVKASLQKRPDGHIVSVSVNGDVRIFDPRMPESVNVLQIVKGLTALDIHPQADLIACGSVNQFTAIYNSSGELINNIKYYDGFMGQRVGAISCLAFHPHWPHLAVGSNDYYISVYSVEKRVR
Text: as §2, §3

B1: CIB2: calcium and integrin binding protein 2, over-expressed in cells from plasmid constructs; SEQ ID NO:1 (human), SEQ ID NO:2 (mouse) (protein)
chain: MGNKQTIFTEEQLDNYQDCTFFNKKDILKLHARFYELAPNLVPMDYRKSPIVHVPMSLIIQMPELRENPFKERIVEAFSEDGEGNLTFNDFVDMFSVLCESAPRELKANYAFKIYDFNTDNFICKEDLEMTLARLTKSELEEDEVVLVCDKVIEEADLDGDGKLGFADFEDMIAKAPDFLSTFHIRI
modifications: left off: large carriers
Binding to GDP-bound vs GTP-bound Rheb (GDP-bound Rheb): binds more strongly to GDP-bound Rheb than to GTP-bound Rheb | Interaction with Rheb (NanoSPD) (Rheb): interacts with Rheb | mTORC2-mediated phosphorylation of AKT (mTORC2): no changes | Interaction with Raptor (co-IP) (Raptor): confirmed the interaction
